Measured values from patent US20050112698A1 (Bayer, published 2005).
Changes are numbered by the printed parent chain. Names may count otherwise.

B1: Fab A2-A1 (Fab, V domains shown)
VH: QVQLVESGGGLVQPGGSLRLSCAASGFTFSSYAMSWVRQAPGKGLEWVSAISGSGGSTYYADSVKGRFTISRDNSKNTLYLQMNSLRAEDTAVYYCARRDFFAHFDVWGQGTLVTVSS
VL: DIQMTQSPSSLSASVGDRVTITCRASQGISSYLAWYQQKPGKAPKLLIYAASSLQSGVPSRFSGSGSGTDFTLTISSLQPEDFATYYCQQYSGMPYTFGQGTKVEIK
B2: Fab A2-E8 (Fab, V domains shown)
VH: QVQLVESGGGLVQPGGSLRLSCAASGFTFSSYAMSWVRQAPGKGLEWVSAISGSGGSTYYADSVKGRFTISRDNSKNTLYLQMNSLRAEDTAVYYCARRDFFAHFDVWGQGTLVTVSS
VL: B1 VL with S30F, S31K
B3: Fab A2-H8 (Fab, V domains shown)
VH: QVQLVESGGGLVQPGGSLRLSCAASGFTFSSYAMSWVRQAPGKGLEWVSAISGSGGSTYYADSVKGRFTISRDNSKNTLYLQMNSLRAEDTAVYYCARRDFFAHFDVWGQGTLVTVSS
VL: B1 VL with S30I, S31G, A34G, A50R
B4: Fab A2 (Fab, V domains shown)
VH: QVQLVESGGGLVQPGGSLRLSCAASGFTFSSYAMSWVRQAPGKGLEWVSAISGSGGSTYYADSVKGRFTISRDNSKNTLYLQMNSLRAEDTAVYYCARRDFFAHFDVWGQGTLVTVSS
VL: B1 VL
notes: HuCAL Fab and parent of the A2-xx clones; It carries FLAG and Strep tags
B5: Fab A8 (first screen, Vλ1) (Fab, V domains shown)
VH: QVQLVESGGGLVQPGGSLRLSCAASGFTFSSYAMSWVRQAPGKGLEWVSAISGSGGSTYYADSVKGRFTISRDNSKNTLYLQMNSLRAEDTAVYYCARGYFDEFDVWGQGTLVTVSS
VL: DIVLTQPPSVSGAPGQRVTISCSGSSSNIGSNYVSWYQQLPGTAPKLLIYDNNQRPSGVPDRFSGSKSGTSASLAITGLQSEDEADYYCQSRDHYVVRWVFGGGTKLTVL
notes: It carries FLAG and Strep tags
B6: Fab A8 (light chain CDR3 variant of A2-G8) (Fab, V domains shown)
VH: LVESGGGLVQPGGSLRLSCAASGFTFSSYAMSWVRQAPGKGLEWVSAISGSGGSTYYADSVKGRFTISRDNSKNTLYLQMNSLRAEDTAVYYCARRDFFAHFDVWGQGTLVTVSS
VL: QMTQSPSSLSASVGDRVTITCRASQGIRGYLGWYQQKPGKAPKLLIYSASSLQSGVPSRFSGSGSGTDFTLTISSLQPEDFATYYCCSAGFMPYTFGQGTKVEIKR
notes: as for B5
B7: Fab A12 (Fab, V domains shown)
VH: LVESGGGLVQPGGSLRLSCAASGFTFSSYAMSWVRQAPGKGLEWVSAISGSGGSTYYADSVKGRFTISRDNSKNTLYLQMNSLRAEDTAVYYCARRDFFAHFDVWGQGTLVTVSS
VL: B6 VL with C87G, S88E, A89W, G90A, F91Y
notes: Light chain CDR3 variant of Fab A2-G8; It carries FLAG and Strep tags
B8: Fab B1 (Fab, V domains shown)
VH: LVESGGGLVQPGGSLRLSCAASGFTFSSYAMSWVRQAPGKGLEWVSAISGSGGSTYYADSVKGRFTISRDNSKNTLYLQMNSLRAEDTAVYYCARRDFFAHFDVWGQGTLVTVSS
VL: B6 VL with C87A, S88E, A89Y, G90I, F91R
notes: as for B5
B9: Fab B9 (Fab, V domains shown)
VH: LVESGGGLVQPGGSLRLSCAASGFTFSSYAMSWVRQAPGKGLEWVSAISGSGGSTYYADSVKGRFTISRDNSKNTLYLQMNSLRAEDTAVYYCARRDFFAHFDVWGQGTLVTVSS
VL: B6 VL with C87A, S88G, A89T
notes: It carries FLAG and Strep tags; also called B9L
B10: Fab D5 (light chain CDR3 variant of A2-G8) (Fab, V domains shown)
VH: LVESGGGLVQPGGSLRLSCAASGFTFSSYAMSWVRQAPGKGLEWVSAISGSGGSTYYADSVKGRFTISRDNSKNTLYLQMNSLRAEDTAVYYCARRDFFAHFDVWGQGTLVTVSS
VL: B6 VL with C87A, A89Q, F91W
notes: as for B5
B11: Fab D6L (Fab, V domains shown)
VH: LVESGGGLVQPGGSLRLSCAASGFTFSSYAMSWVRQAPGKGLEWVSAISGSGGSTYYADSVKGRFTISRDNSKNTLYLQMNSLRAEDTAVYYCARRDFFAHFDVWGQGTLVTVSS
VL: B6 VL with C87G, S88E, A89W, G90L, F91S
notes: as for B7
B12: Fab F5L (Fab, V domains shown)
VH: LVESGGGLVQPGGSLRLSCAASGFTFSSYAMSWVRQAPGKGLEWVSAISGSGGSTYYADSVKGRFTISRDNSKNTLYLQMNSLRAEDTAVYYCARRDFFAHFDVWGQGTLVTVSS
VL: B6 VL with C87S, S88A, A89H
notes: as for B7
B13: Fab A2-D12 (Fab, V domains shown)
VH: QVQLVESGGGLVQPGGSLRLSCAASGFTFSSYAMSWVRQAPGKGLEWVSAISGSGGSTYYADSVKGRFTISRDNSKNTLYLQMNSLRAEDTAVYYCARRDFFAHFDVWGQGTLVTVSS
VL: B1 VL with S30W, S31L, A34S

The binders below were run against T1, human Stem Cell Factor (human, UniProt P21583 26-189) (assay: cell-based or functional assay).
T1 sequence (P21583 other isoform, or with tags, fused parts or gaps limits assumed): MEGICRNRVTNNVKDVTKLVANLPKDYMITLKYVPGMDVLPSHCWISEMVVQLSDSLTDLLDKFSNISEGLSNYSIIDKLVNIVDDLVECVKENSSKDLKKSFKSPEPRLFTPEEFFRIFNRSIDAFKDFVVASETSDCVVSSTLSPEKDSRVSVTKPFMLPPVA

Row | Binder | TF-1 Fab assay IC50 [µg/mL]
1 | B1 | 25
2 | B2 | 8
3 | B3 | 25

Biological target: T1, human Stem Cell Factor
Test: cell-based or functional assay
Remark: another data set of the same source

Row | Binder | Efficacy IC50 (TF-1 proliferation assay, Fab) [µg/mL]
4 | B4 | 29
5 | B5 | 30

What follows are binders tested against T2, Cynomolgus Monkey SCF (cynomolgus monkey, UniProt A0A7N9CAX5 26-189) (assay: competition ELISA: cSCF binding to coated human SCFR, Fab 3.1 µg/ml).
T2 construct: Soluble recombinant protein made in house (Bayer); NiNTA purification implies a His tag, but none is described; also called cSCF; cyno SCF
Description: The extracts containing Fab were also tested for the ability to inhibit SCF binding to the SCF receptor. ELISA plates were coated overnight with 2 μg/ml human SCFR (R&D Systems, Minneapolis, Minn.) in PBS at 4° C. After washing with TBS-T, the plate was blocked with 5 mg/ml BSA in PBS. The extract was diluted 1/5 in PBS buffer containing 12.5 ng/ml cSCF and 1 mg/ml BSA. After a 1 hr incubation at room temperature, 100 μl was added to the blocked ELISA plate and incubated an additional hour. The plate was washed 5 times with TBS-T, and 100 μl of a 0.4 μg/ml solution of anti-SCF (R&D Systems) in 1 mg/ml BSA in PBS was added. After 1 hour the plate was washed and incubated with anti-Mouse-HRP (Sigma, St. Louis, Mo.). The plate was developed with BM Blue POD substrate (Roche Diagnostics, Chicago, Ill.) and read at 370 nm.
(§1) TABLE 12 Sequences of the CDR3 Vk1 Region of Selected Antibody Clones with Comparison of koff and SCF Inhibitory Activity The off-rates were determined using a high density surface CM5 chip (5000 RU of immobilized cSCF) on BIAcore and are shown with comparison to the original A2-G8 clone. […] The IC₅₀ in the TF-1 proliferation assay was based on an average of two assays with the exception of the A2-G8-IgG (n = 5).

Row | Binder | % Inhibition SCF Binding ELISA Assay [%]
6 | B6 | 70
7 | B7 | 68
8 | B8 | 65
9 | B9 | 70
10 | B10 | 75
11 | B11 | 70
12 | B12 | 85

These binders were tested against T2, Cynomolgus Monkey SCF (assay: cell-based or functional assay).

Row | Binder | IC50 TF-1 cynoSCF Assay [µg/mL]
13 | B6 | 4.64
14 | B7 | 1.65
15 | B8 | 2.07
16 | B9 | 5.45
17 | B10 | 0.48
18 | B11 | 1.46
19 | B12 | 0.78

Biological target: T1, human Stem Cell Factor
Test: cell-based or functional assay
Remark: another data set of the same source

Row | Binder | IC50 TF-1 huSCF Assay [µg/mL]
20 | B7 | 0.38
21 | B8 | 0.14
22 | B9 | 2.01
23 | B10 | 0.09
24 | B11 | 0.19
25 | B12 | 0.17

Each binder was assayed against T2, Cynomolgus Monkey SCF (assay: SPR BIAcore, 5000 RU immobilized cSCF, off-rate ranking).
Description: as §1
Analysis of Fab binding to cSCF was performed by surface plasmon resonance using a BIAcore 2000 (Biacore, Piscataway, N.J.), according to the manufacturer's instructions and a CM5 chip (Biacore) coated with cSCF. For amine coupling, a research grade CM5 chip was activated using the standard NHS/EDC procedure. Cynomologus monkey SCF was diluted to 20 μg/ml in 10 mM NaAcetate, pH 5.0, and a total of 5000 RU's were coupled to channel 2 of the sensor surface. The remaining active sites were quenched by the addition of 1M ethanolamine, pH 8.0. Channel 1 was subjected to the coupling procedure in the absence of protein and was used as a reference surface. Extracts were diluted 1/5 in HBS-EP running buffer and injected for 2 min using a flow rate of 20 μl/min. The surface was regenerated by two consecutive injections of 25 μl, 10 mM glycine, pH 2.5, using a flow rate of 100 μl/min. The koff was calculated from a single concentration of Fab using BIAevaluation software (Biacore).

Row | Binder | koff [s⁻¹]
26 | B6 | 0.00075
27 | B7 | 0.00044
28 | B8 | 0.00041
29 | B9 | 0.00048
30 | B10 | 0.00027
31 | B11 | 0.0003
32 | B12 | 0.00024

Biological target: T2, Cynomolgus Monkey SCF
Test: cell-based or functional assay
Remark: another data set of the same source

Row | Binder | IC50, inhibition of cyno SCF in TF-1 proliferation [µg/mL] | percent inhibition of SCF-induced TF-1 proliferation at 200 ug/ml Fab [%]
33 | B4 | 20 to 60 | > 100
34 | B5 |  | > 100

The binders below were run against T3, rat Stem Cell Factor (rat, UniProt P21581 26-189, limits assumed) (assay: cell-based or functional assay).
T3 sequence (looked up): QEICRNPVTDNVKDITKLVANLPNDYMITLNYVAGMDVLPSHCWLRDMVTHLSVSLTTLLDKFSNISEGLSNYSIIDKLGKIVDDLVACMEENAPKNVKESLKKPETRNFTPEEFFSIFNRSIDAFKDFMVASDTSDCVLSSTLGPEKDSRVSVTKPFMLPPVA

Row | Binder | IC50, inhibition of rat SCF in TF-1 proliferation [µg/mL] | percent inhibition of SCF-induced TF-1 proliferation at 200 ug/ml Fab [%]
35 | B4 | 20 to 60 | > 100

Biological target: T1, human Stem Cell Factor
Test: cell-based or functional assay
Remark: another data set of the same source

Row | Binder | percent inhibition of SCF-induced TF-1 proliferation at 200 ug/ml Fab [%] | TF-1 proliferation IC50, fold lower than the A2-G8 Mab [fold]
36 | B4 | > 100 | 
37 | B5 | > 100 | 
38 | B7 |  | ≥ 6
39 | B8 |  | ≥ 6
40 | B10 |  | ≥ 6
41 | B11 |  | ≥ 6
42 | B12 |  | ≥ 6

These binders were tested against T1, human Stem Cell Factor (assay: BIAcore, Fab on immobilized SCF).

Row | Binder | Kd [nM]
43 | B4 | 65.7
44 | B5 | 9.7

These binders were tested against T1, human Stem Cell Factor (assay: SPR BIAcore 2000, Fab over 150 RU immobilized hSCF).
Description: (§2) Affinity measurements were carried out on a BIAcore 2000 (Biacore) at 25° C. […] Purified Fab's were diluted in HBS-EP running buffer at concentrations ranging from 1.95 to 125 nM. A volume of 100 μl was injected using a flow rate of 50 μl/min in Kinject mode. After a 10 min dissociation, 50 μl of 10 mM Glycine, pH 2.5 and 25 μl of 10 mM Glycine, pH 2.0 was injected using a flow rate of 100 μl/min. All samples were run in duplicate. […] Cynomologus monkey SCF was diluted in HBS-EP running buffer at concentrations ranging from 15.6 to 500 nM and 150 μl injected at a flow rate of 50 μl/min. After a 15 min dissociation, 50 μl of 10 mM Glycine, pH 2.5, and 25 μl of 10 mM Glycine, pH 1.5 was injected using a flow rate of 100 μl/min. All samples were run in duplicate. The data was globally fit to the 1 to 1 binding model using BIAevaluation software. The raw experimental data were corrected for instrumental and bulk solvent artifacts by double referencing using both activated and blocked surfaces as controls.
(§3) To evaluate the binding properties of anti-SCF Fabs selected from affinity optimization of the CDR3 loop with SCF, the real time interaction was measured using surface plasmon resonance with the BIAcore 2000. […] The improvement in Kd's are primarily governed by a substantial reduction in the off-rate (koff). […] The affinity constants for Fab binding to human SCF were slightly lower than those Kd's for cynomologus monkey SCF. The panning design, with lower antigen concentrations and extensive washing steps, favors off-rate selection. The affinity of the A2-G8 clone in an IgG vector was measured using the IgG immobilized to the surface of the CM5 chip.

Row | Binder | Kd [nM] | koff [s⁻¹] | kon [M⁻¹ s⁻¹]
45 | B7 | 1.8 | 0.00046 | 250000
46 | B8 | 1.6 | 0.0005 | 320000
47 | B9 | 1.7 | 0.0005 | 300000
48 | B10 | 0.8 | 0.00024 | 290000
49 | B11 | 1.4 | 0.00027 | 190000
50 | B12 | 1.3 | 0.00022 | 170000

The binders below were run against T2, Cynomolgus Monkey SCF (assay: SPR BIAcore 2000, Fab over 185 RU immobilized cSCF).
Description: as §2, §3

Row | Binder | Kd [nM] | koff [s⁻¹] | kon [M⁻¹ s⁻¹]
51 | B7 | 5.5 | 0.00087 | 160000
52 | B8 | 4.9 | 0.00104 | 210000
53 | B9 | 4.3 | 0.00079 | 190000
54 | B10 | 3.6 | 0.00069 | 190000
55 | B11 | 5.4 | 0.00073 | 130000
56 | B12 | 2.6 | 0.00028 | 110000

Each binder was assayed against T1, human Stem Cell Factor (assay: BIAcore, Affinity Estimation, Fab).

Row | Binder | Kd [nM]
57 | B1 | 57
58 | B2 | 17
59 | B3 | 44
60 | B13 | 18
